In patent publication US10434147B2, “Treatment type 2 diabetes mellitus patients” (Sanofi-Aventis Deutschland GmbH, priority 2015, dated 2019):

What was measured:
[1] = system: Patients with Type 2 Diabetes Insufficiently Controlled with Insulin Glargine with or without Metformin; assay: Treatment-emergent adverse events, 26-week study; type: in vivo, human
From the text: (§1) FIG. 6—Graphical study design. ^1 Insulin glargine should be injected subcutaneously once daily at dinner or breakfast time (according to patient's/investigators' preference). […] Meal used for insulin glulisine dosing should remain the same throughout the 26-week treatment period. ^4 Injection of insulin glulisine prior to breakfast, lunch and dinner.
(§2) Co-primary endpoints at 26 weeks were (1) non-inferiority (95% CI upper bound <0.4%) in HbA1c reduction with LIXI vs GLU-1 and (2) for LIXI vs GLU-3, either non-inferiority in HbA1c reduction (2a) OR superiority (one-sided α≤0.025) in body weight change (2b). FPG, PPG, IG dose, composite outcomes, AEs, and hypoglycemia were assessed.

[2] = system: Patients with Type 2 Diabetes Insufficiently Controlled with Insulin Glargine with or without Metformin; parameters: species or system human; conditions: in vivo
From the text: Clinical symptoms that are considered to result from a hypoglycemic episode are, e.g., increased sweating, nervousness, asthenia/weakness, tremor, dizziness, increased appetite, palpitations, headache, sleep disorder, confusion, seizures, unconsciousness, coma.
as §2

[3] = system: Patients with Type 2 Diabetes Insufficiently Controlled with Insulin Glargine with or without Metformin; assay: Body weight, 26-week study; type: in vivo, human
From the text: as §1, §2

[4] = Safety population, PT ≥ 3% table
[5] = Baseline (before IMP), mITT population
[6] = Week 26 (LOCF), mITT population

## Insulin Glulisine TID: insulin glulisine three times daily, added to insulin glargine ± metformin (comparator arm)
[1]; Safety population
  Patients with any TEAE leading to death: 2 (0.7%) n (%)
  Patients with treatment emergent SAE: Accidental overdose: 1 (0.3%) n (%)
[1]; [4]
  Patients with TEAE: Accidental overdose: 20 (6.8%) n (%)
  Patients with TEAE: Headache: 12 (4.1%) n (%)
  Patients with TEAE: Hypoglycaemia: 154 (52.4%) n (%)
  Patients with TEAE: Infections and infestations (SOC): 81 (27.6%) n (%)
  Patients with TEAE: Influenza: 14 (4.8%) n (%)
  Patients with TEAE: Injury, poisoning and procedural complications (SOC): 28 (9.5%) n (%)
  Patients with TEAE: Investigations (SOC): 92 (31.3%) n (%)
  Patients with TEAE: Metabolism and nutrition disorders (SOC): 157 (53.4%) n (%)
[1]; in vivo
  Adjudicated by PSAC: Acute on chronic pancreatitis: 0 n (%)
  Adjudicated by PSAC: Acute pancreatitis: 0 n (%)
  Adjudicated by PSAC: Chronic pancreatitis: 0 n (%)
  Adjudicated by PSAC: Unknown pancreatitis: 0 n (%)
  Gastrointestinal AEs: Diarrhea: 4 (1) n (%)
  Gastrointestinal AEs: Nausea: 3 (1) n (%)
  Gastrointestinal AEs: Vomiting: 6 (2) n (%)
  Patients with TEAE on the specific adverse event form for increased calcitonin (>=20 ng/L): Any: 1 (0.3%) n (%)
  Patients with TEAE on the specific adverse event form for increased calcitonin (>=20 ng/L): Blood calcitonin increased: 1 (0.3%) n (%)
  Patients with TEAE: Any class: 236 (80.3%) n (%)
  Patients with TEAE: Blood glucose decreased: 82 (27.9%) n (%)
  Patients with TEAE: Diarrhoea: 4 (1.4%) n (%)
  Patients with TEAE: Gastrointestinal disorders (SOC): 22 (7.5%) n (%)
  Patients with TEAE: Nasopharyngitis: 18 (6.1%) n (%)
  Patients with TEAE: Nausea: 3 (1.0%) n (%)
  Patients with TEAE: Nervous system disorders (SOC): 29 (9.9%) n (%)
  Patients with TEAE: Upper respiratory tract infection: 11 (3.7%) n (%)
  Patients with TEAE: Vomiting: 6 (2.0%) n (%)
  Patients with any TEAE: 236 (80.3%) n (%)
  Patients with any TEAE leading to permanent treatment discontinuation: 3 (1.0%) n (%)
  Patients with any treatment emergent SAE: 14 (4.8%) n (%)
  Patients with events adjudicated as allergic reaction by ARAC: All, Any category, Any event: 1 (0.3%) n (%)
  Patients with events adjudicated as allergic reaction by ARAC: OTHER ALLERGIC REACTION, Rhinitis allergic: 1 (0.3%) n (%)
  Patients with events adjudicated as allergic reaction by ARAC: Possibly Related to IMP, Any event: 0 n (%)
  Patients with events adjudicated as allergic reaction by ARAC: URTICARIA (HIVES), Urticaria: 0 n (%)
  Patients with treatment emergent SAE: Abdominal pain: 0 n (%)
  Patients with treatment emergent SAE: Angina pectoris: 1 (0.3%) n (%)
  Patients with treatment emergent SAE: Angina unstable: 0 n (%)
  Patients with treatment emergent SAE: Ankle fracture: 0 n (%)
  Patients with treatment emergent SAE: Any class: 14 (4.8%) n (%)
  Patients with treatment emergent SAE: Atrial fibrillation: 0 n (%)
  Patients with treatment emergent SAE: Atrioventricular block complete: 1 (0.3%) n (%)
  Patients with treatment emergent SAE: Basal cell carcinoma: 1 (0.3%) n (%)
  Patients with treatment emergent SAE: Cardiac disorders (SOC): 5 (1.7%) n (%)
  Patients with treatment emergent SAE: Cardiac failure chronic: 1 (0.3%) n (%)
  Patients with treatment emergent SAE: Cardiac failure congestive: 1 (0.3%) n (%)
  Patients with treatment emergent SAE: Cellulitis: 1 (0.3%) n (%)
  Patients with treatment emergent SAE: Cerebrovascular accident: 2 (0.7%) n (%)
  Patients with treatment emergent SAE: Decreased appetite: 0 n (%)
  Patients with treatment emergent SAE: Dehydration: 0 n (%)
  Patients with treatment emergent SAE: Diabetic bullosis: 0 n (%)
  Patients with treatment emergent SAE: Epigastric discomfort: 0 n (%)
  Patients with treatment emergent SAE: Erysipelas: 0 n (%)
  Patients with treatment emergent SAE: Gastric ulcer haemorrhage: 0 n (%)
  Patients with treatment emergent SAE: Gastrointestinal disorders (SOC): 0 n (%)
  Patients with treatment emergent SAE: Hepatic mass: 0 n (%)
  Patients with treatment emergent SAE: Hepatobiliary disorders (SOC): 0 n (%)
  Patients with treatment emergent SAE: Hypertension: 1 (0.3%) n (%)
  Patients with treatment emergent SAE: Hypoglycaemia: 0 n (%)
  Patients with treatment emergent SAE: Hypoglycaemic unconsciousness: 0 n (%)
  Patients with treatment emergent SAE: Incisional hernia: 0 n (%)
  Patients with treatment emergent SAE: Infections and infestations (SOC): 1 (0.3%) n (%)
  Patients with treatment emergent SAE: Injury, poisoning and procedural complications (SOC): 1 (0.3%) n (%)
  Patients with treatment emergent SAE: Invasive ductal breast carcinoma: 1 (0.3%) n (%)
  Patients with treatment emergent SAE: Metabolism and nutrition disorders (SOC): 0 n (%)
  Patients with treatment emergent SAE: Myocardial infarction: 0 n (%)
  Patients with treatment emergent SAE: Myocardial ischaemia: 1 (0.3%) n (%)
  Patients with treatment emergent SAE: Neoplasm malignant: 1 (0.3%) n (%)
  Patients with treatment emergent SAE: Neoplasms benign, malignant and unspecified (incl cysts and polyps) (SOC): 3 (1.0%) n (%)
  Patients with treatment emergent SAE: Nervous system disorders (SOC): 2 (0.7%) n (%)
  Patients with treatment emergent SAE: Neuritis cranial: 0 n (%)
  Patients with treatment emergent SAE: Pancreatic carcinoma metastatic: 0 n (%)
  Patients with treatment emergent SAE: Penile infection: 0 n (%)
  Patients with treatment emergent SAE: Renal and urinary disorders (SOC): 0 n (%)
  Patients with treatment emergent SAE: Renal failure: 0 n (%)
  Patients with treatment emergent SAE: Renal failure acute: 0 n (%)
  Patients with treatment emergent SAE: Septic arthritis staphylococcal: 0 n (%)
  Patients with treatment emergent SAE: Skin and subcutaneous tissue disorders (SOC): 1 (0.3%) n (%)
  Patients with treatment emergent SAE: Skin ulcer haemorrhage: 1 (0.3%) n (%)
  Patients with treatment emergent SAE: Uterine cancer: 0 n (%)
  Patients with treatment emergent SAE: Vascular disorders (SOC): 1 (0.3%) n (%)
  TEAE leading to permanent treatment discontinuation: Abdominal pain: 0 n (%)
  TEAE leading to permanent treatment discontinuation: Any class: 3 (1.0%) n (%)
  TEAE leading to permanent treatment discontinuation: Ascites: 0 n (%)
  TEAE leading to permanent treatment discontinuation: Blood and lymphatic system disorders (SOC): 0 n (%)
  TEAE leading to permanent treatment discontinuation: Blood glucose decreased: 0 n (%)
  TEAE leading to permanent treatment discontinuation: Cardiac disorders (SOC): 1 (0.3%) n (%)
  TEAE leading to permanent treatment discontinuation: Cardiac failure chronic: 1 (0.3%) n (%)
  TEAE leading to permanent treatment discontinuation: Cough: 0 n (%)
  TEAE leading to permanent treatment discontinuation: Decreased appetite: 0 n (%)
  TEAE leading to permanent treatment discontinuation: Dehydration: 0 n (%)
  TEAE leading to permanent treatment discontinuation: Diabetic bullosis: 0 n (%)
  TEAE leading to permanent treatment discontinuation: Diarrhoea: 0 n (%)
  TEAE leading to permanent treatment discontinuation: Dyspepsia: 0 n (%)
  TEAE leading to permanent treatment discontinuation: Epigastric discomfort: 0 n (%)
  TEAE leading to permanent treatment discontinuation: Gastric ulcer haemorrhage: 0 n (%)
  TEAE leading to permanent treatment discontinuation: Gastrointestinal disorders (SOC): 0 n (%)
  TEAE leading to permanent treatment discontinuation: Headache: 0 n (%)
  TEAE leading to permanent treatment discontinuation: Hepatic mass: 0 n (%)
  TEAE leading to permanent treatment discontinuation: Hepatobiliary disorders (SOC): 0 n (%)
  TEAE leading to permanent treatment discontinuation: Hot flush: 0 n (%)
  TEAE leading to permanent treatment discontinuation: Hypoglycaemia: 0 n (%)
  TEAE leading to permanent treatment discontinuation: Immune system disorders (SOC): 1 (0.3%) n (%)
  TEAE leading to permanent treatment discontinuation: Invasive ductal breast carcinoma: 0 n (%)
  TEAE leading to permanent treatment discontinuation: Investigations (SOC): 0 n (%)
  TEAE leading to permanent treatment discontinuation: Lymphadenopathy: 0 n (%)
  TEAE leading to permanent treatment discontinuation: Metabolism and nutrition disorders (SOC): 0 n (%)
  TEAE leading to permanent treatment discontinuation: Metastases to liver: 0 n (%)
  TEAE leading to permanent treatment discontinuation: Metastases to peritoneum: 0 n (%)
  TEAE leading to permanent treatment discontinuation: Nasal congestion: 0 n (%)
  TEAE leading to permanent treatment discontinuation: Nausea: 0 n (%)
  TEAE leading to permanent treatment discontinuation: Neoplasms benign, malignant and unspecified (incl cysts and polyps) (SOC): 0 n (%)
  TEAE leading to permanent treatment discontinuation: Nervous system disorders (SOC): 0 n (%)
  TEAE leading to permanent treatment discontinuation: Pancreatic carcinoma metastatic: 0 n (%)
  TEAE leading to permanent treatment discontinuation: Renal and urinary disorders (SOC): 0 n (%)
  TEAE leading to permanent treatment discontinuation: Renal failure: 0 n (%)
  TEAE leading to permanent treatment discontinuation: Respiratory, thoracic and mediastinal disorders (SOC): 0 n (%)
  TEAE leading to permanent treatment discontinuation: Seasonal allergy: 1 (0.3%) n (%)
  TEAE leading to permanent treatment discontinuation: Skin and subcutaneous tissue disorders (SOC): 1 (0.3%) n (%)
  TEAE leading to permanent treatment discontinuation: Skin ulcer haemorrhage: 1 (0.3%) n (%)
  TEAE leading to permanent treatment discontinuation: Thrombosis: 0 n (%)
  TEAE leading to permanent treatment discontinuation: Tremor: 0 n (%)
  TEAE leading to permanent treatment discontinuation: Vascular disorders (SOC): 0 n (%)
  TEAE leading to permanent treatment discontinuation: Vomiting: 0 n (%)
  Total number of patients with any event adjudicated as pancreatitis by PSAC: 0 n (%)
[2]
  Any symptomatic hypoglycemia: Number of events: 600
  Any symptomatic hypoglycemia: Number of events per 100 patient years: 410.4 per 100 patient years
  Any symptomatic hypoglycemia: Number of patients with events per 100 patient years: 90.3 per 100 patient years
  Documented Symptomatic Hypoglycemia at Week 26, % pts: 44.6 (p = 0.001) % pts
  Documented Symptomatic Hypoglycemia at Week 26, No. of events: 595
  Documented Symptomatic Hypoglycemia at Week 26, No. of events/pt years: 4.1 events/pt years
  Severe Hypoglycemia, no. of pts with events: 0
[3]; ANCOVA, mITT population
  Body weight, Change from baseline to Week 26 (LOCF), LS Mean (SE): 1.37 (0.271) kg
[3]; ANCOVA, mITT population, p <.0001
  Body weight change to Week 26, LS Mean difference (SE) of Lixisenatide vs. the labelled insulin glulisine arm: −1.99 (0.305) kg
[3]; BL, mITT, Example 2 table
  Body Weight, BL mean ± SD: 90.0 ± 17.2 kg
[3]; [5]
  Body weight, Baseline, Mean (SD): 90.00 (17.21) kg
  Body weight, Baseline, Median: 88.70 kg
[3]; [6]
  Body weight, Week 26 (LOCF), Mean (SD): 91.29 (17.27) kg
  Body weight, Week 26 (LOCF), Median: 90.50 kg
[3]; Week 26 (LOCF), mITT, Example 2 table
  Body Weight, Week 26 (LOCF) mean ± SD: 91.3 ± 17.3 kg
[3]; Week 26, mITT, Example 2 table
  Body Weight, LS mean ± SE change from BL: 1.4 ± 0.3 kg
[3]; Week 26, mITT, p < 0.0001, Example 2 table
  Body Weight, LS mean treatment difference (lixisenatide vs the labelled arm): -2.0 kg
[3]; mITT population
  Body weight, Change from baseline to Week 26 (LOCF), Mean (SD): 1.29 (2.80) kg
  Body weight, Change from baseline to Week 26 (LOCF), Median: 1.20 kg
